Measured values: patent US6362319B1, “Glial cell line-derived neurotrophic factor” (Amgen Inc., priority 1991, dated 2002)
Numbering of substitutions follows the chain as printed.

Legend:
[1] = test system: dopaminergic neurons in rat embryo (E16) mesencephalic cell cultures; assay: Bioassay for dopaminergic neurotrophic activity: 3H-dopamine uptake in dissociated mesencephalic cell cultures; assay type: cell-based; details: for ED50 for increasing dopamine uptake: rat embryo (E16) mesencephalic culture; for BIOACTIVITY: total trophic units at purification step; for SP. ACT (specific activity, dopamine uptake trophic units per protein): TU = reciprocal of dilution giving 50% of maximal stimulation of 3H-DA uptake; for FOLD (specific activity relative to B49 conditioned medium): purification fold over CM
Procedure: The dopaminergic activity of the GDNF is used to facilitate the purification process. […] Briefly, cultures of dissociated mesencephalic cells are prepared, either in serum rich or serum free environments. Samples to be tested for dopaminergic activity are desalted and serially added to the cell cultures and the dishes are incubated for 6 days at 37° C. in a humidified atmosphere containing 6.5% CO2. The cultures, in the presence of the testing material, are then incubated at 37° C. with tritiated dopamine (^3H-DA). The dopamine uptake is halted, the cells washed, and the dopamine uptake analyzed by scintillation counting of retained tritium in the cultures.
Culture conditions: Dissociated mesencephalic cell cultures were prepared as previously described (Friedman and Mytilineou 1987 Neurosci. Lett. 79:65-72), with minor modifications. Briefly, rostral mesencephalic tegmentum from brains of Sprague-Dawley rat embryos, at the 16th day of gestation, were dissected under the microscope in sterile conditions, collected in Ca^2+- and Mg^2+-free Dulbecco's phosphate buffered saline (Gibco, Gaithersburg, Md.) and dissociated mechanically by mild trituration. The cells were plated in 100 μl per well onto 16-mm diameter tissue culture wells (Falcon, Lincoln Park, N.J., 24-well plate) containing 400 μl medium to give a density of 2.5-3.5×10^5 cells per well. The culture wells had been previously exposed to 0.1 mg/ml solution of poly L-ornithine in 10 mM sodium borate, pH 8.4, for 3 hours at 37° C., washed 3 times in milli-Q H2O and once in Earle's balanced salt solution (Gibco). The feeding medium (10/10) consisted of minimal essential medium (MEM, Gibco) supplemented with glucose (33 mM), sodium bicarbonate (24.5 mM), glutamine (2 mM), HEPES (15 mM), penicillin G (5 U/ml), streptomycin (5 μg/ml), 10% heat-inactivated fetal calf serum (Gibco) and 10% heat inactivated horse serum (Gibco). The cultures were kept at 37° C. in a water-saturated atmosphere containing 6.5% CO2. After 3 hours, when most of the cells had adhered to the bottom of the well, the medium was replaced with 500 μl of fresh medium. At this time, a serial dilution of the sample to be assayed for GDNF activity was added to each well in duplicate and the plates were incubated in the 37° C. incubator. After a week, the cultures were treated for 24 hours with fluorodeoxyuridine (13 μg/ml) and uridine (33 μg/ml) to prevent excessive glial proliferation and subsequently fed with the above medium without fetal calf serum. The feeding medium was changed weekly.
Alternatively, chemically defined serum-free medium was used in which serum was replaced by a mixture of proteins; hormones and salts. The defined medium (DM) consisted of a mixture of MEM and F12 nutrient mixture (both Gibco, 1:1; vol/vol) with glucose (33 mM), glutamine (2 mM) NaHCO3 (24.5 mM), HEPES (15 mM), supplemented with transferrin (100 μg/ml), insulin (25 μg/ml), putrescine (60 μM), progesterone (20 nM), sodium selenite (30 nM), penicillin G (5 U/ml) and streptomycin (5 μg/ml). The osmolarity of the DM was adjusted to 325 by the addition of milli-Q H2O. (110-125 ml H2O/l). […] All assays reached in the following examples were done in serum-containing medium.
The functional status of the dopaminergic neurons may be assayed in these cultures by measuring dopamine uptake through specific “scavenger” transporters in the dopaminergic neurons and by counting the number of neurons positive for the dopamine synthetic enzyme tyrosine hydroxylase using immunohistochemistry.

[2] = test system: sympathetic neurons from chick embryo sympathetic chain ganglia; assay: Neuronal survival assay (MTT), sympathetic chain ganglia; assay type: cell-based; details: for fold lower than refolded rhGDNF in sympathetic neuron survival bioassay / apparent ED50 in the sympathetic neuron survival bioassay: prior to refolding; for apparent ED50 in the sympathetic neuron survival bioassay: exposed to 30 mM 2-mercaptoethanol
Procedure: Cultures of primary check embryo ciliary ganglia and sympathetic chain ganglia were prepared as previously described (Collins 1978 Develop. Biol. 65:50; Manthorpe et al. 1986 Develop. Brain Res. 25:191). Briefly, ciliary or sympathetic ganglia were removed from fertile, pathogen free chicken eggs that had been incubated for 8 and 10 days, respectively, at 38° C. in a humidified atmosphere. The ganglia were chemically dissociated by exposure first to Hands' Balanced Salt Solution without divalent cations, containing 10 mM HEPES buffer pH 7.2 for 10 min at 37° C., and then by exposure to a solution of 0.125% bactotrypsin 1:250 (Difco, Detroit, Mich.) in Hanks' Balanced Salt Solution modified as above for 12 min at 37° C. Trypsinization was stopped by addition of fetal calf serum to a final concentration of 10%.
After this treatment, ganglia were transferred to a solution consisting of Dulbecco's high glucose Modified Eagle Medium without bicarbonate containing 10% fetal calf serum and 10 mM HEPES, pH 7.2 and were mechanially dissociated by trituration approximately 10 times through a glass Pasteur pipet whose opening had been fire polished and constricted to a diameter such that it took 2 seconds to fill the pipet.
The dissociated ganglia were then plated in culture medium (Dulbecco's Modified Eagle Medium supplemented with 10% fetal calf serum, 4 mM glutamine, 60 mg/L penicillin-G, 25 mM HEPES, pH 7.2) in 100 mm diameter tissue culture dishes (40 dissociated ganglia per dish) for three hours. […] After three hours, the nonadherent nerve cells were collection by centrifugation, resuspended in culture medium, and plated in 50 μl per well onto half area 96 well microtiter tissue culture plates at a density of 1500 nerve cells per well. The microtiter wells had been previously exposed to a 1 mg/ml solution of poly-L-ornithine in 10 mM sodium borate, pH 8.4 overnight at 4° C., washed in distilled water and air dried.
Ten μl of a serial dilution of the sample to be assayed for neurotrophic activity was added to each well and the dishes were incubated for 20 hours at 37° C. in a humidified atmosphere containing 7.5% CO2. After 18 hours for ciliary and 40 hours for sympathetic ganglia, 15 μl per well of a 1.5 mg/ml solution of the tetrasolium dye MTT in Dulbecco's high glucose Modified Eagle Medium without bicarbonate containing 10 mM HEPES, pH 7.2, was added and the cultures placed in the 37° C. incubator for 4 hours. Then, 75 μl of a solution of 6.7 ml of 12 M HCl per liter of isopropanol was added and the contents of each well triturated 30 times to break open the cells and suspend the dye. The absorbance of 570 nm was determined relative to a 690 nm reference for each well using an automatic microtiter plate reader (Dynatech, Chantilly, Va.). The absorbance of wells which had not received any neurotrophic agent (negative controls) was substracted from the absorbance of sample-containing wells. The resulting absorbance is proportional to the number of living cells in each well, defined as those nerve cells capable of reducing the dye. The number of trophic units of neurotrophic activity was defined as the reciprocal of the dilution that gave 50% of maximal survival of nerve cells. Specific activity was determined by dividing the number of trophic units by the amount of protein present in the sample.

B1: GDNF prior to refolding: E. coli-expressed human GDNF, exposed to 2-mercaptoethanol and purified by S- or Q-Sepharose, before refolding (protein, UniProt P39905 78-211, looked up)
Glial cell line-derived …: SPDKQMAVLPRRERNRQAAAANPENSRGKGRRGQRGKNRGCVLTAIHLNVTDLGLGYETKEELIFRYCSGSCDAAETTYDKILKNLSRNRRLVSDKVGQACCRPIAFDDDLSFLDDNLVYHILRKHSAKRCGCI
modifications: unrefolded, E. coli-expressed
- bioactivity in dopamine uptake assay [1]: no detectable bioactivity
- bioactivity in sympathetic neuron survival bioassay [2]: greatly reduced bioactivity

B2: S-Sepharose chromatographed material: unrefolded human GDNF TU extract partially purified on S-Sepharose (protein, UniProt P39905 78-211, looked up)
Glial cell line-derived …: B1 Glial cell line-derived …
modifications: unrefolded, partially purified
- fold lower than refolded rhGDNF in sympathetic neuron survival bioassay [2]: about 333 fold
- apparent ED50 in the sympathetic neuron survival bioassay [2]: about 1 μg/ml

B3: Q-Sepharose chromatographed material: unrefolded sulfonylated human GDNF extract partially purified on Q-Sepharose (protein, UniProt P39905 78-211, looked up)
Glial cell line-derived …: B1 Glial cell line-derived …
modifications: unrefolded, sulfonylated
- fold lower than refolded rhGDNF in sympathetic neuron survival bioassay [2]: about 100 fold
- apparent ED50 in the sympathetic neuron survival bioassay [2]: about 3 μg/ml

B4: refolded GDNF: recombinant mature human GDNF expressed in E. coli and refolded (protein)
chain: SNMPEDYPDQFDDVMDFIQATIKRLKRSPDKQMAVLPRRERNRQAAAANPENSRGKGRRGQRGKNRGCVLTAIHLNVTDLGLGYETKEELIFRYCSGSCDAAETTYDKILKNLSRNRRLVTDKVGQACCRPIAF
- bioactivity in dopamine uptake assay [1]: fully active
- ED50 for increasing dopamine uptake [1]: about 3 pg/ml
- ED50 for increasing dopamine uptake ([1]; listed as rhGDNF): about 30 pg/ml
- bioactivity in sympathetic neuron survival bioassay [2]: fully active
- ED50 for sympathetic neuron survival ([2]; chick embryo (E10) sympathetic ganglia): about 3 ng/ml

B5: 4. Preparative SDS-PAGE: GDNF eluted from preparative non-reducing SDS-PAGE (protein, UniProt Q07731 78-211, looked up)
Glial cell line-derived …: B1 Glial cell line-derived … with M6A, V8A, N22S, D73E, T78M, N89S, V93T, I105V, N117S
modifications: purification fraction
- BIOACTIVITY [1]: 7 TU × 10^−3

B6: 5. RP-HPLC: GDNF peak 3 after second reverse-phase HPLC (protein, UniProt Q07731 78-211, looked up)
Glial cell line-derived …: B1 Glial cell line-derived … with M6A, V8A, N22S, D73E, T78M, N89S, V93T, I105V, N117S
modifications: purification fraction
notes: GDNF peak 3 after second reverse-phase HPLC
- SP. ACT (specific activity, dopamine uptake trophic units per protein) [1]: 17,000 TU/μg
- FOLD (specific activity relative to B49 conditioned medium) [1]: 34,000
- BIOACTIVITY [1]: 5 TU × 10^−3

B7: 3. RP-HPLC: GDNF after first reverse-phase HPLC (protein, UniProt Q07731 78-211, looked up)
Glial cell line-derived …: B1 Glial cell line-derived … with M6A, V8A, N22S, D73E, T78M, N89S, V93T, I105V, N117S
modifications: purification fraction
- SP. ACT (specific activity, dopamine uptake trophic units per protein) [1]: 12,000 TU/μg
- FOLD (specific activity relative to B49 conditioned medium) [1]: 24,000
- BIOACTIVITY [1]: 12 TU × 10^−3
